Laboratory results taken from US20210292392A1 (TSB THERAPEUTICS BEIJING, published 2021).
Read-outs that look alike come from different tables or passages of the source.

How the values were obtained:
[1] = target: recombinant RBD of the spike protein of SARS-CoV-2 (residues Arg319-Phe541) (SARS-CoV-2, UniProt P0DTC2 319-541)
[2] = target: T1, full length spike (S) protein of SARS-CoV-2 (SARS-CoV-2, UniProt P0DTC2 14-1273); assay: cell-based or functional assay
[3] = target: T1, full length spike (S) protein of …; assay: cell-based or functional assay; remark: listed apart in the source
[4] = target: spike protein on live SARS-CoV-2 (SARS-CoV-2, UniProt P0DTC2 14-1273); assay: cell-based or functional assay
[5] = target: T1, full length spike (S) protein of …; assay: cell-based or functional assay; remark: listed apart in the source
[6] = target: full length spike (S) protein of SARS-CoV-2 on pseudovirus (SARS-CoV-2, UniProt P0DTC2 14-1273); assay: cell-based or functional assay
[7] = target: spike (S) protein of live SARS-CoV-2 (SARS-CoV-2, UniProt P0DTC2 14-1273); assay: cell-based or functional assay
[8] = target: full length S protein of SARS-CoV-2 (on pseudovirus) (SARS-CoV-2, UniProt P0DTC2 14-1273); assay: cell-based or functional assay
[9] = target: spike protein of live SARS-CoV-2 (SARS-CoV-2, UniProt P0DTC2 14-1273); assay: cell-based or functional assay

B1: P2B-1G5 (antibody, human IgG1, lambda, V domains shown)
VH: QVQLVQSGSELKKPGASVKVSCKASGYTFTTYVMNWVRQAPGQGLEWMGWINTNTGNPTYAQGFTGRFVFSLDTSVSTASLQISSLKAEDTAVYYCSCEITTLGGMDVWGQGTTVTVSS
VL: SYVLTQPPSVSVAPGKTARITCGGNNIGSKSVHWYQQKPGQAPVLVIYYDSDRPSGIPERFSGSNSGNTATLTISGVEAGDEADYYCQVWDSISDHRVFGGGTKLTVLG
Kd [1]: 0.1 nM | kon [1]: 1.38e+06 M⁻¹ s⁻¹ | IC50, pseudovirus neutralization [2]: 0.11 µg/mL

B2: P4B-1F4 (antibody, human IgG1, kappa, V domains shown)
VH: QVQLVESGGGVVQPGRSLRLSCAASGFTFSSYGMHWVRQAPGKGLEWVAVISYDGSNKYYADSVKGRFTISRDNSKNTLYLQINSLRAEDTAVYYCAKGPRYSSSWYISLYYYYGMDVWGQGTTVTVSS
VL: not shown
IC90, Pesudovirus neutralization [3]: 14.5 µg/mL

B3: P2B-2F6 (antibody, V domains shown)
VH: QVQLQESGPGLVKPSETLSLTCTVSGYSISSGYYWGWIRQPPGKGLEWIGSIYHSGSTYYNPSLKTRVTISVDTSKNQFSLKLSSVTAADTAVYYCARAVVGIVVVPAAGRRAFDIWGQGTMVTVSS
VL: QSALTQPPSASGSPGQSVTISCTGTSSDVGGYNYVSWYQQHPGKAPKLMIYEVSKRPSGVPDRFSGSKSGNTASLTVSGLQAEDEADYYCSSYAGSNNLVFGGGTKLTVLG
IC50, live SARS-CoV-2 focus reduction neutralization test (FRNT) [4]: 0.41 µg/mL | IC50, pseudovirus neutralization [5]: 0.05 µg/mL | Neutralizing activity (%) Mean at 0.0228624 µg/ml [5]: 39.4% | Neutralizing activity (%) Mean at 0.0685871 µg/ml [5]: 51.8% | Neutralizing activity (%) Mean at 0.2057613 µg/ml [5]: 67.1% | Neutralizing activity (%) Mean at 0.6172839 µg/ml [5]: 81.4% | Neutralizing activity (%) Mean at 1.851852 µg/ml [5]: 89% | Neutralizing activity (%) Mean at 5.555555 µg/ml [5]: 93.5% | Neutralizing activity (%) Mean at 16.66667 µg/ml [5]: 95.4% | Neutralizing activity (%) Mean at 50 µg/ml [5]: 97.4%

B4: P2B-2F6 (antibody, V domains shown)
VH: QVQLQESGPGLVKPSETLSLTCTVSGYSISSGYYWGWIRQPPGKGLEWIGSIYHSGSTYYNPSLKTRVTISVDTSKNQFSLKLSSVTAADTAVYYCARAVVGIVVVPAAGRRAFDIWGQGTMVTVSS
VL: QSALTQPPSASGSPGQSVTISCTGTSSDVGGYNYVSWYQQHPGKAPKLMIYEVSKRPSGVPDRFSGSKSGNTASLTVSGLQAEDEADYYCSSYAGSNNLVFGGGTKLTVLG
Pseudovirus IC50 [6]: 0.05 µg/mL | Pseudovirus IC80 [6]: 0.607 µg/mL | Live virus IC50 [7]: 0.407 µg/mL | Live virus IC80 [7]: 2.43 µg/mL

B5: P2B-2F6 (antibody, V domains shown)
VH: QVQLQESGPGLVKPSETLSLTCTVSGYSISSGYYWGWIRQPPGKGLEWIGSIYHSGSTYYNPSLKTRVTISVDTSKNQFSLKLSSVTAADTAVYYCARAVVGIVVVPAAGRRAFDIWGQGTMVTVSS
VL: QSALTQPPSASGSPGQSVTISCTGTSSDVGGYNYVSWYQQHPGKAPKLMIYEVSKRPSGVPDRFSGSKSGNTASLTVSGLQAEDEADYYCSSYAGSNNLVFGGGTKLTVLG
Pseudovirus IC50 [8]: 0.05 µg/mL | Pseudovirus IC80 [8]: 0.607 µg/mL | Live virus IC50 [9]: 0.407 µg/mL
